Measurements from patent US20220396626A1 (GUANGZHOU BIO GENE TECHNOLOGY, published 2022).

Key:
[1] = target: T1, human CLL1 ECD-His (human CLL1 extracellular domain with His tag) (human, UniProt Q5QGZ9 65-265); assay: BLI (ForteBio), antibody on AHC sensor, 100 nM human CLL1 ECD-His, 1:1 model
T1 construct: also called antigen human CLL1 ECD-His; antigen CLL1; not shown: His tag
T1 sequence: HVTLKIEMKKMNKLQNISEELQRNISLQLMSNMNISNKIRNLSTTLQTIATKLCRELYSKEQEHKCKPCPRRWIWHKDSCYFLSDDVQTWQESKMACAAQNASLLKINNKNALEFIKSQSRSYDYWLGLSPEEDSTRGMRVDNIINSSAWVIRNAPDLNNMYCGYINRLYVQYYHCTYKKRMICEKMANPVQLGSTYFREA
Experimental: In short, the antibody was loaded on the anti-human IgG capture (AHC) biosensor, the sensor was equilibrated in the assay buffer for 30 min offline, and monitored online for 60 s to establish the baseline; the antibody-loaded sensor was incubated with the 100 nM antigen human CLL1 ECD-His for 5 min, then transferred to the assay buffer, and the dissociation rate was measured after 5 min; the kinetic analysis was carried out using a 1:1 combination model.

[2] = target: T2, human CLL1 on the surface of transfected cells (HEK293-CLL1; HEK-293T membrane proteome array) (human, UniProt Q5QGZ9 1-265); assay: flow cytometry on HEK293 cells overexpressing CLL1, FITC goat anti-human IgG-Fc secondary; controls on the sheet: Cells + Secondary Antibody 1029.8, Blank 1041.3
T2 construct: whole, on cells; also called HEK293-CLL1 cells; CLL1 target antigen
T2 sequence (looked up): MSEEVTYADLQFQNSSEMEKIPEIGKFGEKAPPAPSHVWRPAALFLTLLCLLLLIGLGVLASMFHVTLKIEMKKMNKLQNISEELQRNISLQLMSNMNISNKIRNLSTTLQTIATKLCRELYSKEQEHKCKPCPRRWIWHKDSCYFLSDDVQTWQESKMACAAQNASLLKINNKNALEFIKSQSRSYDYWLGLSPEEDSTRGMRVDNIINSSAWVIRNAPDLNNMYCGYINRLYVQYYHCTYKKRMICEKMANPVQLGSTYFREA
Experimental: In the present example, flow cytometry was used to detect the binding of antibodies ch23D7, ch27H4, and ch19C1 to CLL1 on HEK293 cells. The steps are as follows:
5×10⁵ HEK293 cells overexpressing CLL1 were resuspended in PBS+5% BSA and incubated at 4° C. for 30 min; antibodies of different concentrations (1 μg/mL˜0.01 μg/mL, 10-fold dilutions) were added and incubated at 4° C. for 60 min; after centrifugation and washing, a PBS+5% BSA solution containing FITC-labeled goat anti-human IgG-Fc secondary antibody (1:200, sigma, F9512) was added, and incubated on ice for 30 min in the dark; the cells were washed 3 times and then analyzed by flow cytometry;

[3] = target: T1, human CLL1 ECD-His (human CLL1 …); assay: BLI (ForteBio), antibody on AHC sensor, 60 nM human CLL1 ECD-His, 1:1 model
Experimental: In short, 4 μg/mL antibody was loaded on the anti-human IgG capture (AHC) biosensor, the sensor was equilibrated offline for 30 min in the assay buffer, and the online monitoring was used for 60 s to establish the baseline; the antibody-loaded sensor was incubated with the 60 nM antigen human CLL1 ECD-His for 3 min, then transferred to the assay buffer, and the dissociation rate was measured after 3 min; the kinetic analysis was performed using a 1:1 binding model.

[4] = target: T2, human CLL1 on the surface of …; assay: flow cytometry on HEK293 cells overexpressing CLL1
From the text: In the present example, flow cytometry was used to detect the binding of antibodies hz27H4H1L1, hz27H4H1L2 and CLL1 on HEK293 cells.

[5] = target: T3, Recombinant Cynomolgus Monkey CLL-1 Protein (his), Acro CLA-H5263 (cynomolgus monkey, UniProt A0A2K5WXQ4 71-271); assay: SPR, antibody captured on Protein A chip, cynomolgus CLL-1 as analyte
T3 construct: also called Analyte 2
T3 sequence: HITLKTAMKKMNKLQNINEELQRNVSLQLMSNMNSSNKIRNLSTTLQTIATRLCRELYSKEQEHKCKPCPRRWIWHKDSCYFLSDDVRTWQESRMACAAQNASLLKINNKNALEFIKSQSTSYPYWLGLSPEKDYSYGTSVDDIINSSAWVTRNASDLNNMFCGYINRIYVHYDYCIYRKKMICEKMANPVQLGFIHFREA

[6] = target: T4, Recombinant Human CLL-1 Protein (his), Acro CLA-H5245 (human, UniProt Q5QGZ9 65-265); assay: SPR, antibody captured on Protein A chip, recombinant human CLL-1 as analyte 3.125-50 nM, 1:1 model
T4 construct: also called Analyte 1; not shown: his tag
T4 sequence (looked up): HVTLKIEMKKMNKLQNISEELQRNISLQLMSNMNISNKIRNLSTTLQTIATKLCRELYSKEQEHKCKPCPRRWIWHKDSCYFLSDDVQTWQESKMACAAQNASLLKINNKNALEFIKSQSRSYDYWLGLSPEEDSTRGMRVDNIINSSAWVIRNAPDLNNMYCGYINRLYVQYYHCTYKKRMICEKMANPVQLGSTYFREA

B1: anti-human CLL-1 control antibody 1075.7 (antibody)
scFv: ENVLTQSPAIMSASPGEKVTMTCRASSNVISSYVHWYQQRSGASPKLWIYSTSNLASGVPARFSGSGSGTSYSLTISSVEAEDAATYYCQQYSGYPLTFGAGTKLELGGGGSGGGGSGGGGSDIQLQESGPGLVKPSQSLSLTCSVTGYSITSAYYWNWIRQFPGNKLEWMGYISYDGRNNYNPSLKNRISITRDTSKNQFFLKLNSVTTEDTATYYCAKEGDYDVGNYYAMDYWGQGTSVTVSS
notes: it was captured by anti-human IgG sensors and detected with anti-human IgG-Fc, so a human Fc was present; also called ch1075.7
For B1, the Kd [1] was 0.414 nM, the Response [1] was 0.236 and the koff [1] was 4.48e-05 s⁻¹. The kon [1] was 108000 M⁻¹ s⁻¹, the “MFI at 0.01ug/ml” value [2] was 4580 and the “MFI at 0.1ug/ml” value [2] was 35600. For the same binder, the “MFI at 1ug/ml” value [2] was 222000, the Kd [3] was 6.76 nM and the Response [3] was 0.219. The koff [3] was 0.000997 s⁻¹, the kon [3] was 148000 M⁻¹ s⁻¹ and the EC50 [4] was 0.245 µg/mL.

B2: chimeric antibody ch19C1 (antibody, V domains shown)
VH: QVQLQQSGAELMKPGASVKISCKATGYTFSSYWIEWVKQRPGHGLEWIGEIFPGSGSIKYNEKFKGKATFTADTSSNTAYMQLSSLTSEDSAVHYCARGGTYNDYSLFDYWGQGTTLTVSS
VL: QIVLTQSPAIMSASPGEKVTMTCSASSSVSYMYWYQQKPGSSPRLLIFDTSNLASGVPVRFSGSGSGTSYSLTISRMEAEDAATYYCQQWSSYPLTFGAGTKLELK
For B2, the Kd [1] was 10.9 nM, the Response [1] was 0.619 and the koff [1] was 0.00197 s⁻¹. For the same binder, the kon [1] was 180000 M⁻¹ s⁻¹, the “MFI at 0.01ug/ml” value [2] was 4610 and the “MFI at 0.1ug/ml” value [2] was 35900. The “MFI at 1ug/ml” value [2] was 163000.

B3: chimeric antibody ch23D7 (antibody, V domains shown)
VH: QVQLQQPGSDLVRPGASVKLSCKASGYTFTRYWMHWVKQRPGHGLEWIGYIYPGSGTSNYDEKFKSKATLTVDTSSSTAYMQLSSLTSEDSAVYYCTREARYTMDYWGQGTSVTVSS
VL: QIVLTQSPAIMSASPGEKVTMTCSASSSVSYIYWYQQKPGSSPGLLIYDTSNLASGVPVRFSGSGSGTSYSLTISRMEAEDAATYYCQQWSSFPPTFGAGTKLELK
Work on B3 yielded a Kd [1] of 2.19 nM, a Response [1] of 0.654 and a koff [1] of 0.000284 s⁻¹. The kon [1] was 130000 M⁻¹ s⁻¹, the “MFI at 0.01ug/ml” value [2] was 4690 and the “MFI at 0.1ug/ml” value [2] was 34600. For the same binder, the “MFI at 1ug/ml” value [2] was 151000.

B4: chimeric antibody ch27H4 (antibody, V domains shown)
VH: EVQLQQSGPELVKPGASVKISCKASGYSFTGYHMHWVKQSHVKSLEWIGRINPYNGAASHNQKFKDKATLTVDKSSSTAYMELHSLTSEDSAVYYCARGWDYDGGYYAMDYWGQGTSVTVSS
VL: DIVMSQSPSSLAVSVGEKVTMSCKSSQSLLYSDNQKNYLAWYQQKPGQSPKLLIYWASTRESGVPDRFTGSGSGTDFTLTISSVKAEDLAVYYCQQYYTYPYTFGGGTKLEIK
notes: also called parent antibody
B4 was tested, and the Kd [1] was 3.83 nM, the Response [1] was 0.634 and the koff [1] was 0.00101 s⁻¹. For the same binder, the kon [1] was 265000 M⁻¹ s⁻¹, the “MFI at 0.01ug/ml” value [2] was 3510 and the “MFI at 0.1ug/ml” value [2] was 25200. For the same binder, the “MFI at 1ug/ml” value [2] was 163000, the Kd [3] was 3.88 nM and the Response [3] was 0.597. It also gave a koff [3] of 0.00124 s⁻¹, a kon [3] of 320000 M⁻¹ s⁻¹ and an EC50 [4] of 0.358 µg/mL.

B5: humanized antibody hz27H4H1L1 (antibody, V domains shown)
VH: EVQLVQSGAEVKKPGASVKVSCKASGYTFTGYHMHWVRQAPGQRLEWMGRINPYNGAASHNQKFKDRVTITRDTSASTAYMELSSLRSEDTAVYYCARGWDYDGGYYAMDYWGQGTLVTVSS
VL: DIQMTQSPSSLSASVGDRVTITCKSSQSLLYSDNQKNYLAWYQQKPGKAPKLLIYWASTRESGVPSRFSGSGSGTDFTLTISSLQPEDFATYYCQQYYTYPYTFGQGTKLEIK
notes: Heavy chain variable region hz27H4H1 with light chain variable region hz27H4L1; also called h27H4H1L1 (complete antibody)
B5 was tested, and the binding result [5] was “no binding (tested: 50 nM)”, the Kd [6] was 1.12 nM and the koff [6] was 0.00549 s⁻¹. It also gave a kon [6] of 4.91e+06 M⁻¹ s⁻¹, a Kd [3] of 2.29 nM and a Response [3] of 0.612. For the same binder, the koff [3] was 0.000862 s⁻¹, the kon [3] was 377000 M⁻¹ s⁻¹ and the EC50 [4] was 0.262 µg/mL.

B6: humanized antibody hz27H4H1L2 (antibody, V domains shown)
VH: EVQLVQSGAEVKKPGASVKVSCKASGYTFTGYHMHWVRQAPGQRLEWMGRINPYNGAASHNQKFKDRVTITRDTSASTAYMELSSLRSEDTAVYYCARGWDYDGGYYAMDYWGQGTLVTVSS
VL: DIVMTQSPLSLPVTPGEPASISCKSSQSLLYSDNQKNYLAWYLQKPGQSPQLLIYWASTRESGVPDRFSGSGSGTDFTLKISRVEAEDVGVYYCQQYYTYPYTFGQGTKLEIK
notes: Heavy chain variable region hz27H4H1 with light chain variable region hz27H4L2; also called h27H4H1L2 (complete antibody)
B6 was tested, and the binding result [5] was “no binding (tested: 50 nM)”, the Kd [6] was 1.08 nM and the koff [6] was 0.00544 s⁻¹. The kon [6] was 5.04e+06 M⁻¹ s⁻¹, the Kd [3] was 2.21 nM and the Response [3] was 0.726. For the same binder, the koff [3] was 0.000976 s⁻¹, the kon [3] was 441000 M⁻¹ s⁻¹ and the EC50 [4] was 0.321 µg/mL.

B7: humanized antibody hz27H4H1L3 (antibody, V domains shown)
VH: EVQLVQSGAEVKKPGASVKVSCKASGYTFTGYHMHWVRQAPGQRLEWMGRINPYNGAASHNQKFKDRVTITRDTSASTAYMELSSLRSEDTAVYYCARGWDYDGGYYAMDYWGQGTLVTVSS
VL: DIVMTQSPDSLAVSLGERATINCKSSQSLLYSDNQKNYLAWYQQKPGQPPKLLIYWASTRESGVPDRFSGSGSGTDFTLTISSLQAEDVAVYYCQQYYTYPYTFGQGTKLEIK
notes: Heavy chain variable region hz27H4H1 with light chain variable region hz27H4L3
In the case of B7, the Kd [3] is reported as 2.49 nM, the Response [3] is reported as 0.722 and the koff [3] is reported as 0.00109 s⁻¹. The kon [3] was 438000 M⁻¹ s⁻¹.

B8: 27H4-scFv-hFc (Fc fusion)
scFv: DIVMSQSPSSLAVSVGEKVTMSCKSSQSLLYSDNQKNYLAWYQQKPGQSPKLLIYWASTRESGVPDRFTGSGSGTDFTLTISSVKAEDLAVYYCQQYYTYPYTFGGGTKLEIKGGGGSGGGGSGGGGSEVQLQQSGPELVKPGASVKISCKASGYSFTGYHMHWVKQSHVKSLEWIGRINPYNGAASHNQKFKDKATLTVDKSSSTAYMELHSLTSEDSAVYYCARGWDYDGGYYAMDYWGQGTSVTVSS
notes: VL-(G4S)3-VH structure with C-terminal human IgG1 Fc; also called Anti-CLL1 scFv-hIgG1; not shown: human IgG1 Fc fused at the C-terminus
With B8 the binding result [5] was “no binding (tested: 50 nM)”, the Kd [6] was 3.06 nM and the koff [6] was 0.0126 s⁻¹. For the same binder, the kon [6] was 4.11e+06 M⁻¹ s⁻¹.

B9: 19C1-scFv-hFc (Fc fusion)
scFv: QIVLTQSPAIMSASPGEKVTMTCSASSSVSYMYWYQQKPGSSPRLLIFDTSNLASGVPVRFSGSGSGTSYSLTISRMEAEDAATYYCQQWSSYPLTFGAGTKLELKGGGGSGGGGSGGGGSQVQLQQSGAELMKPGASVKISCKATGYTFSSYWIEWVKQRPGHGLEWIGEIFPGSGSIKYNEKFKGKATFTADTSSNTAYMQLSSLTSEDSAVHYCARGGTYNDYSLFDYWGQGTTLTVSS
notes: as for B8
For B9, the binding result [5] was “no binding (tested: 50 nM)”, the Kd [6] was 5.75 nM and the koff [6] was 0.00509 s⁻¹. For the same binder, the kon [6] was 886000 M⁻¹ s⁻¹.

B10: 23D7-scFv-hFc (Fc fusion)
scFv: QIVLTQSPAIMSASPGEKVTMTCSASSSVSYIYWYQQKPGSSPGLLIYDTSNLASGVPVRFSGSGSGTSYSLTISRMEAEDAATYYCQQWSSFPPTFGAGTKLELKGGGGSGGGGSGGGGSQVQLQQPGSDLVRPGASVKLSCKASGYTFTRYWMHWVKQRPGHGLEWIGYIYPGSGTSNYDEKFKSKATLTVDTSSSTAYMQLSSLTSEDSAVYYCTREARYTMDYWGQGTSVTVSS
notes: as for B8
B10 was tested, and the binding result [5] was “no binding (tested: 50 nM)”, the Kd [6] was 110 nM and the koff [6] was 0.0322 s⁻¹. It also gave a kon [6] of 293000 M⁻¹ s⁻¹.
